In patent US12673108B2 (Oxford University Innovation Limited, priority 2021, dated 2026):
Square brackets hold non-standard residues; d marks the D form. Ends that are not written are not given here. Ahx = NCCCCCC(=O)O; βAla = NCCC(=O)O

How the values were obtained:
[1] = fmoc spps; Fmoc-beta-Ala-OH preloaded Wang resin (0.19 or 0.46 mmol g-1); PyBOP/NMM; PyBOP/HOAt/DIPEA (or HBTU) for PMO conjugation; details: conjugation step, UV-Vis, based on PMO extinction coefficient, scale 10 pmol or 100 pmol (so in the source)
[2] = Toxicological assessment of peptide-PMO (urinary KIM-1, NGAL; serum BUN); assay type: in vivo, C57BL/6 mice; details: for urinary KIM-1 levels: single dose 30 mg/kg (2.5-50 mg/kg); for urinary KIM-1 levels / urinary NGAL levels: urine Day 2 and Day 7, normalised to urinary creatinine; for urinary NGAL levels: single dose 30 mg/kg
Procedure: Female C57BL/6 mice aged 8-10 weeks were administered a single 30 mg/kg dose of peptide-PMO in 0.9% saline by bolus intravenous tail vein injection. Urine was non-invasively collected under chilled conditions at Day 2 and Day 7 post-administration following 20 hours housing in metabolic cages (Tecniplast, UK). Serum was collected from jugular vein at Day 7 at necropsy, as was tibialis anterior, diaphragm and heart tissue.
The same procedure was followed at different single dosage amounts ranging from 2.5 mg/kg up to 50 mg/kg of peptide-PMO in 0.9% saline by intravenous tail vein injection.
Urinary levels of KIM-1 (Kidney injury molecule-1) and NGAL (Neutrophil Gelatinase-Associated Lipocalin) were quantified by ELISA (KIM-1 R&D cat #MKM100, NGAL R&D cat #MLCN20) following appropriate dilution of urine to fit standard curves. Values were normalised to urinary creatinine levels that were quantified at MRC Harwell Institute, Mary Lyon Centre, Oxfordshire, UK. Serum blood urea nitrogen levels were quantified at MRC Harwell Institute, Mary Lyon Centre, Oxfordshire, UK.
All levels were quanitifed on an AU680 Clinical Chemistry Analyser, Beckman Coulter. Quantification of exon skipping efficacy was determined by quantitative RT-PCR of exon 23 skipped and unskipped transcripts and expressed as percentage of skipped versus total (skipped and unskipped) transcripts (see Table 7 for sequences).

[3] = test system: dystrophin; details: in vivo; cited from earlier work
[4] = test system: human hepatocytes; test: Hepatocyte cell viability (fluorescent-based assay); details: 40 uM
Procedure: Immortalized myoblasts from healthy individual or DM1 patient with 2600 CTG repeats were cultivated in a growth medium consisting of a mix of M199: DMEM (1:4 ratio; Life technologies) supplemented with 20% FBS (Life technologies), 50 µg/ml gentamycin (Life technologies), 25 pg/ml fetuin, 0.5 ng/ml bFGF, 5 ng/ml EGF and 0.2 pg/ml dexamethasone (Sigma-Aldrich). Myogenic differentiation was induced by switching confluent cell cultures to DMEM medium supplemented with 5 pg/ml insulin (Sigma-Aldrich) for myoblasts. For treatment, WT or DM1 cells are differentiated for 4 days. Then, medium was changed with fresh differentiation medium with peptide-PMOs at a 1, 2, 5 10, 20 or 40 pM concentration. Cells were harvested for analysis 48 h after treatment. Cell viability was quantified in after 2 days of transfection of peptide-PMOs at 40 uM in human hepatocytes or at a 1, 2, 5 10, 20 or 40 pM concentration in human myoblasts using a fluorescent-based assay (Promega).

[5] = Recovery times of mice after injection with peptide-PMOCAG7 conjugates; assay type: in vivo, C57BL6 mice; details: 12.5 mg/kg; HSA-LR mice; age 8-12 weeks
Procedure: Animal experiments and ASO injections. Experiments were carried out in the University of Oxford according to UK legislation. The intravenous injections in HSA-LR C57BL/6 mice were performed by single or repeated administrations via the tail vein. Doses of 30, 12.5, 7.5 and 5 mg/kg of peptide-PMO-CAG7 (SEQ ID NO: 192) were diluted in 0.9% saline and given at a volume of 5-6 pL/g of body weight. KIM-1 levels in C57BL6 female mice measured by ELISA (R&D cat #MKM100) with samples diluted to fit within standard curve. Values were normalised to urinary creatinine levels (Harwell) to account for urine protein concentration.

Substance: Ac-RBRRBRFQILYBRBR-(E)-PMO (GGCCAAACCTCGGCTTACCTGAAAT; peptide Ac-RBRRBRFQILYBRBR-(E) conjugated, chemistry not fully specified)
- conjugation yield [1]: 39%

Substance: Ac-RBRRBRRFQILYRBHBH-(Ab)-PMO (GGCCAAACCTCGGCTTACCTGAAAT; listed as DNA, chemistry not fully specified)
- conjugation yield [1]: 26%

Substance: DPEP 1.9 (Ac-R[βAla]RR[βAla]RFQILY[βAla]R[βAla]R[βAla]; also: PMO conjugate, site not given here)
- urinary KIM-1 levels [2]: lowest levels
- urinary NGAL levels [2]: lowest levels

Substance: DPEP 3.8 (Ac-R[βAla]RR[βAla]RFQILYR[βAla]H[βAla]H[βAla]; also: PMO conjugate, site not given here)
- urinary KIM-1 levels [2]: lowest levels
- urinary NGAL levels [2]: lowest levels

Substance: Pip9b2 (Ac-R[Ahx]RR[βAla]RRFQILYR[βAla]R[Ahx]R[βAla]; also: PMO conjugate, site not given here) [reference compound]
- Serum blood urea nitrogen levels ([2]; 7 days after single dose of 30 mg/kg): elevated

Substance: eteplirsen
- levels of dystrophin restoration [3]: approximately 1 % of normal dystrophin levels

Substance: pip6a: prior peptide carrier AC-RXRRBRRXR-YQFLI-RXRBRXR-B conjugated to [CAG]7 PMO (SEQ ID NO: 192) (Ac-R[Ahx]RR[βAla]RR[Ahx]RYQFLIR[Ahx]R[βAla]R[Ahx]R[βAla]; also: conjugated to [CAG]7 PMO, site not given here) [reference compound]
- percentage hepatocyte cell viability [4]: cell mortality
- Recovery time after injection, Time AV ± SD [5]: >60 min
